# Laboratory results published in the supplement of paper PMC11908140.
# B1: library; numbered along this chain (parent)
# chain: MRKPRAAVGSGHRKQAASQEGRQKHAKNNSQAKPSACDGLARQPEEVVLQASVSSYHLFRDVAEVTAFRGSLLSWYDQEKRDLPWRRRAEDEMDLDRRAYAVWVSEVMLQQTQVATVINYYTGWMQKWPTLQDLASASLEEVNQLWAGLGYYSRGRRLQEGARKVVEELGGHMPRTAETLQQLLPGVGRYTAGAIASIAFGQATGVVDGNVARVLCRVRAIGADPSSTLVSQQLWGLAQQLVDPARPGDFNQAAMELGATVCTPQRPLCSQCPVESLCRARQRVEQEQLLASGSLSGSPDVEECAPNTGQCHLCLPPSEPWDQTLGVVNFPRKASRKPPREESSATCVLEQPGALGAQILLVQRPNSGLLAGLWEFPSVTWEPSEQLQRKALLQELQRWAGPLPATHLRHLGEVVHTFSHIKLTYQVYGLALEGQTPVTTVPPGARWLTQEEFHTAAVSTAMKKVFRVYQGQQPGTCMGSKRSQVSSPCSRKKPRMGQQVLDNFFRSHISTDAHSLNSAAQ
# Variants of: B1
# Assay: 8OG:A repair function score (normalized; synonymous = 0, nonsense = -1) (normalized log-likelihood score); higher = more repair activity (WT-like)
# Details: with 8OG:A DNA repair reporter (GFP) in HEK-293 MUTYH KO cells
# Outline: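 Per-tile Rosace fitness scores were converted to a normalized repair function score anchored on synonymous and nonsense distributions. That scale puts synonymous medians at 0 and nonsense medians at -1. Variants with starting counts under 300 counts per million were discarded. Input came from sorting viable mCherry+ MUTYH knockout HEK-293 cells, carrying lentiviral MUTYH cDNA NNN codon-scan libraries in 10 pg/ml doxycycline and an 8OG:A GFP repair reporter, into GFP+ and GFP− bins at 72 h, three replicates per tile, followed by tile amplicon sequencing.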
# 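Also: cells sorted at 72 h after reporter transfection.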
row,Variant,8OG:A repair function score
1,MRKPRAAVGSGHRKQAASQEGRQKHAKNNSQAKPSACDGLARQPEEVVLQASVSSYHLFRDVAEVTAFRGSLLSWYDQEKRDLPWRRRAEDEMDLDRRAYAVWVSEVMLQQTQVATVINYYTGWMQKWPTLQDLASASLEEVNQLWAGLGYYSRGRRLQEGARKVVEELGGHMPRTAETLQQLLPGVGRYTAGAIASIAFGQATGVVDGNVARVLCRVRAIGADPSSTLVSQQLWGLAQQLVDPARPGDFNQAAMELGATVCTPQRPLCSQCPVESLCRARQRVEQEQLLASGSLSGSPDVEECAPNTGQCHLCLPPSEPWDQTLGVVNFPRKASRKPPREESSATCVLEQPGALGAQILLVQRPNSGLLAGLWEFPSVTWEPSEQLQRKALLQELQRWAGPLPATHLRHLGEVVHTFSHIKLTYQVYGLALEGQTPVTTVPPGARWLTQEEFHTAAVSTAMKKVFRVYQGQQPGTCMGSKRSQVSSPCSRKKPRMGQQVLDNFFRSHIETDAHSLNSAAQ [S510E],-0.0364
2,MRKPRAAVGSGHRKQAASQEGRQKHAKNNSQAKPSACDGLARQPEEVVLQASVSSYHLFRDVAEVTAFRGSLLSWYDQEKRDLPWRRRAEDEMDLDRRAYAVWVSEVMLQQTQVATVINYYTGWMQKWPTLQDLASASLEEVNQLWAGLGYYSRGRRLQEGARKVVEELGGHMPRTAETLQQLLPGVGRYTAGAIASIAFGQATGVVDGNVARVLCRVRAIGADPSSTLVSQQLWGLAQQLVDPARPGDFNQAAMELGATVCTPQRPLCSQCPVESLCRARQRVEQEQLLASGSLSGSPDVEECAPNTGQCHLCLPPSEPWDQTLGVVNFPRKASRKPPREESSATCVLEQPGALGAQILLVQRPNSGLLAGLWEFPSVTWEPSEQLQRKALLQELQRWAGPLPATHLRHLGEVVHTFSHIKLTYQVYGLALEGQTPVTTVPPGARWLTQEEFHTAAVSTAMKKVFRVYQGQQPGTCMGSKRSQVSSPCSRKKPRMGQQVLDNFFRSHIATDAHSLNSAAQ [S510A],-0.00841
3,MRKPRAAVGSGHRKQAASQEGRQKHAKNNSQAKPSACDGLARQPEEVVLQASVSSYHLFRDVAEVTAFRGSLLSWYDQEKRDLPWRRRAEDEMDLDRRAYAVWVSEVMLQQTQVATVINYYTGWMQKWPTLQDLASASLEEVNQLWAGLGYYSRGRRLQEGARKVVEELGGHMPRTAETLQQLLPGVGRYTAGAIASIAFGQATGVVDGNVARVLCRVRAIGADPSSTLVSQQLWGLAQQLVDPARPGDFNQAAMELGATVCTPQRPLCSQCPVESLCRARQRVEQEQLLASGSLSGSPDVEECAPNTGQCHLCLPPSEPWDQTLGVVNFPRKASRKPPREESSATCVLEQPGALGAQILLVQRPNSGLLAGLWEFPSVTWEPSEQLQRKALLQELQRWAGPLPATHLRHLGEVVHTFSHIKLTYQVYGLALEGQTPVTTVPPGARWLTQEEFHTAAVSTAMKKVFRVYQGQQPGTCMGSKRSQVSSPCSRKKPRMGQQVLDNFFRSHIFTDAHSLNSAAQ [S510F],-0.00526
4,MRKPRAAVGSGHRKQAASQEGRQKHAKNNSQAKPSACDGLARQPEEVVLQASVSSYHLFRDVAEVTAFRGSLLSWYDQEKRDLPWRRRAEDEMDLDRRAYAVWVSEVMLQQTQVATVINYYTGWMQKWPTLQDLASASLEEVNQLWAGLGYYSRGRRLQEGARKVVEELGGHMPRTAETLQQLLPGVGRYTAGAIASIAFGQATGVVDGNVARVLCRVRAIGADPSSTLVSQQLWGLAQQLVDPARPGDFNQAAMELGATVCTPQRPLCSQCPVESLCRARQRVEQEQLLASGSLSGSPDVEECAPNTGQCHLCLPPSEPWDQTLGVVNFPRKASRKPPREESSATCVLEQPGALGAQILLVQRPNSGLLAGLWEFPSVTWEPSEQLQRKALLQELQRWAGPLPATHLRHLGEVVHTFSHIKLTYQVYGLALEGQTPVTTVPPGARWLTQEEFHTAAVSTAMKKVFRVYQGQQPGTCMGSKRSQVSSPCSRKKPRMGQQVLDNFFRSHIDTDAHSLNSAAQ [S510D],-0.0311
5,MRKPRAAVGSGHRKQAASQEGRQKHAKNNSQAKPSACDGLARQPEEVVLQASVSSYHLFRDVAEVTAFRGSLLSWYDQEKRDLPWRRRAEDEMDLDRRAYAVWVSEVMLQQTQVATVINYYTGWMQKWPTLQDLASASLEEVNQLWAGLGYYSRGRRLQEGARKVVEELGGHMPRTAETLQQLLPGVGRYTAGAIASIAFGQATGVVDGNVARVLCRVRAIGADPSSTLVSQQLWGLAQQLVDPARPGDFNQAAMELGATVCTPQRPLCSQCPVESLCRARQRVEQEQLLASGSLSGSPDVEECAPNTGQCHLCLPPSEPWDQTLGVVNFPRKASRKPPREESSATCVLEQPGALGAQILLVQRPNSGLLAGLWEFPSVTWEPSEQLQRKALLQELQRWAGPLPATHLRHLGEVVHTFSHIKLTYQVYGLALEGQTPVTTVPPGARWLTQEEFHTAAVSTAMKKVFRVYQGQQPGTCMGSKRSQVSSPCSRKKPRMGQQVLDNFFRSHICTDAHSLNSAAQ [S510C],-0.0307
6,MRKPRAAVGSGHRKQAASQEGRQKHAKNNSQAKPSACDGLARQPEEVVLQASVSSYHLFRDVAEVTAFRGSLLSWYDQEKRDLPWRRRAEDEMDLDRRAYAVWVSEVMLQQTQVATVINYYTGWMQKWPTLQDLASASLEEVNQLWAGLGYYSRGRRLQEGARKVVEELGGHMPRTAETLQQLLPGVGRYTAGAIASIAFGQATGVVDGNVARVLCRVRAIGADPSSTLVSQQLWGLAQQLVDPARPGDFNQAAMELGATVCTPQRPLCSQCPVESLCRARQRVEQEQLLASGSLSGSPDVEECAPNTGQCHLCLPPSEPWDQTLGVVNFPRKASRKPPREESSATCVLEQPGALGAQILLVQRPNSGLLAGLWEFPSVTWEPSEQLQRKALLQELQRWAGPLPATHLRHLGEVVHTFSHIKLTYQVYGLALEGQTPVTTVPPGARWLTQEEFHTAAVSTAMKKVFRVYQGQQPGTCMGSKRSQVSSPCSRKKPRMGQQVLDNFFRSHRSTDAHSLNSAAQ [I509R],-0.0323
